The source of these data is paper PMC7948976, “KIF3A accelerates KIF3C within the kinesin-2 heterodimer to generate symmetrical phosphate release rates for each processive step” (The Journal of Biological Chemistry, 2020).

Experiment in all cases: stopped-flow presteady-state phosphate release, MDCC-PBP fluorescence; hyperbolic fit of initial exponential rates
Holding throughout (format): biochemical, Mus musculus

Substrate in series [1]: Nc1ncnc2c1ncn2[C@@H]1O[C@H](COP(=O)(O)OP(=O)(O)OP(=O)(O)O)[C@@H](O)[C@H]1O
The settings on record: preformed microtubule-KIF3 complex (2 μM MT, 0.5 μM dimer in syringe), 250 mM KCl in ATP syringe, 5 mM magnesium acetate, pH 7.2, 25 °C, not steady-state Km. An excerpt:
stopped-flow presteady-state phosphate release, MDCC-PBP fluorescence; hyperbolic fit of initial exponential rates on KIF3AC

Substrate in series [2]: Nc1ncnc2c1ncn2[C@@H]1O[C@H](COP(=O)(O)OP(=O)(O)OP(=O)(O)O)[C@@H](O)[C@H]1O
The settings on record: preformed microtubule-KIF3 complex (2 μM MT, 0.5 μM dimer in syringe), 300 mM KCl in ATP syringe, 5 mM magnesium acetate, pH 7.2, 25 °C, not steady-state Km. From the text: stopped-flow presteady-state phosphate release, MDCC-PBP fluorescence; hyperbolic fit of initial exponential rates on KIF3AA

Substrate in series [3]: Nc1ncnc2c1ncn2[C@@H]1O[C@H](COP(=O)(O)OP(=O)(O)OP(=O)(O)O)[C@@H](O)[C@H]1O
The note with it: preformed microtubule-KIF3 complex (2 μM MT, 0.5 μM dimer in syringe), 300 mM KCl in ATP syringe, 5 mM magnesium acetate, pH 7.2, 25 °C, not steady-state Km. An excerpt:
stopped-flow presteady-state phosphate release, MDCC-PBP fluorescence; hyperbolic fit of initial exponential rates on KIF3CC
This is another data set of the same source.

B1: KIF3AC (Mus musculus) (protein)
chain 1: MPINKSEKPESCDNVKVVVRCRPLNEREKSMCYRQAVSVDEMRGTITVHKTDSSNEPPKTFTFDTVFGPESKQLDVYNLTARPIIDSVLEGYNGTIFAYGQTGTGKTFTMEGVRAVPGLRGVIPNSFAHIFGHIAKAEGDTRFLVRVSYLEIYNEEVRDLLGKDQTQRLEVKERPDVGVYIKDLSAYVVNNADDMDRIMTLGHKNRSVGATNMNEHSSRSHAIFTITIECSEKGVDGNMHVRMGKLHLVDLAGSERQAKTGATGQRLKEATKINLSLSTLGNVISALVDGKSTHVPYRNSKLTRLLQDSLGGNSKTMMCANIGPADYNYDETISTLRYANRAKNIKNKARINEDPKDALLRQFQKEIEELKKKL
chain 2: MASKTKASEALKVVARCRPLSRKEEAAGHEQILTMDVKLGQVTLRNPRAAPGELPKTFTFDAVYDASSKQADLYDETVRPLIDSVLQGFNGTVFAYGQTGTGKTYTMQGTWVEPELRGVIPNAFEHIFTHISRSQNQQYLVRASYLEIYQEEIRDLLSKEPGKRLELKENPETGVYIKDLSSFVTKNVKEIEHVMNLGNQARAVGSTHMNEVSSRSHAIFVITVECSERGSDGQDHIRVGKLNLVDLAGSERQNKAGPNAAGGPATQPTAGGGSGSGSASGSASSGERPKEASKINLSLSALGNVIAALAGNRSTHIPYRDSKLTRLLQDSLGGNAKTIMVATLGPASHSYDESLSTLRFANRAKNIKNKPRVNEDPKDTLLREFQEEIARLKAQL
notes: heterodimer; motor domain, neck linker and helix α7 (KIF3A Met1-Leu374, KIF3C Met1-Leu396), each fused to EB1 dimerization domain; KIF3A StrepII tag, KIF3C His8 tag, tags not cleaved; E. coli; dimer MW 98,318
Take B1: the K0.5 in series [1] is 28.2 ± 1.8 µM.

B2: KIF3AA (Mus musculus) (protein)
chain: B1 chain 1
notes: engineered homodimer; motor domain Met1-Leu374 fused to EB1 dimerization domain; His8 tag not cleaved; E. coli; dimer MW 97,004
B2: the K0.5 in series [2] amounted to 30.9 ± 4.7 µM.

B3: KIF3CC (Mus musculus) (protein)
chain: B1 chain 2
notes: engineered homodimer; motor domain, neck linker and helix α7 (Met1-Leu396) fused to EB1 dimerization domain; His8 tag not cleaved; E. coli; dimer MW 99,518 (borders printed for the KIF3C chain of KIF3AC; mass agrees)
Consider B3, for which the K0.5 in series [3] was 13.9 ± 3.5 µM.
